Patent US6987089 (dated 2006)

T1: wild type CAD (CAD-WT) (1-345), caspase-activated deoxyribonuclease, 35S-labelled (mouse, UniProt O54788 1-344, 35S label)
T1 construct: range 1-345; also called 35S-labeled CAD
T1 sequence (looked up): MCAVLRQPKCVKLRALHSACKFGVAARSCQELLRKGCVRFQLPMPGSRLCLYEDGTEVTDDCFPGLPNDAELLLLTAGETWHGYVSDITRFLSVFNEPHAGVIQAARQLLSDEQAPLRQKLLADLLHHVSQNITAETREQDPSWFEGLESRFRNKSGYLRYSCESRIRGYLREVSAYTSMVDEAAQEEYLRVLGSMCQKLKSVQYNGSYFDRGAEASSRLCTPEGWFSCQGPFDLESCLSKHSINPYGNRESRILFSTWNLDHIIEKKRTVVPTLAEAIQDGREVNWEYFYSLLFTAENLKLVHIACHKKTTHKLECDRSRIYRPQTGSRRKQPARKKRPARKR

T2: ASK1 wild-type, full length (apoptosis signal-regulating kinase 1), in vitro translated and … (UniProt Q99683 1-1374, 35S-methionine label)
T2 construct: range 1-1375; also called full length ASK1; 35S-labeled ASK1
T2 sequence (looked up): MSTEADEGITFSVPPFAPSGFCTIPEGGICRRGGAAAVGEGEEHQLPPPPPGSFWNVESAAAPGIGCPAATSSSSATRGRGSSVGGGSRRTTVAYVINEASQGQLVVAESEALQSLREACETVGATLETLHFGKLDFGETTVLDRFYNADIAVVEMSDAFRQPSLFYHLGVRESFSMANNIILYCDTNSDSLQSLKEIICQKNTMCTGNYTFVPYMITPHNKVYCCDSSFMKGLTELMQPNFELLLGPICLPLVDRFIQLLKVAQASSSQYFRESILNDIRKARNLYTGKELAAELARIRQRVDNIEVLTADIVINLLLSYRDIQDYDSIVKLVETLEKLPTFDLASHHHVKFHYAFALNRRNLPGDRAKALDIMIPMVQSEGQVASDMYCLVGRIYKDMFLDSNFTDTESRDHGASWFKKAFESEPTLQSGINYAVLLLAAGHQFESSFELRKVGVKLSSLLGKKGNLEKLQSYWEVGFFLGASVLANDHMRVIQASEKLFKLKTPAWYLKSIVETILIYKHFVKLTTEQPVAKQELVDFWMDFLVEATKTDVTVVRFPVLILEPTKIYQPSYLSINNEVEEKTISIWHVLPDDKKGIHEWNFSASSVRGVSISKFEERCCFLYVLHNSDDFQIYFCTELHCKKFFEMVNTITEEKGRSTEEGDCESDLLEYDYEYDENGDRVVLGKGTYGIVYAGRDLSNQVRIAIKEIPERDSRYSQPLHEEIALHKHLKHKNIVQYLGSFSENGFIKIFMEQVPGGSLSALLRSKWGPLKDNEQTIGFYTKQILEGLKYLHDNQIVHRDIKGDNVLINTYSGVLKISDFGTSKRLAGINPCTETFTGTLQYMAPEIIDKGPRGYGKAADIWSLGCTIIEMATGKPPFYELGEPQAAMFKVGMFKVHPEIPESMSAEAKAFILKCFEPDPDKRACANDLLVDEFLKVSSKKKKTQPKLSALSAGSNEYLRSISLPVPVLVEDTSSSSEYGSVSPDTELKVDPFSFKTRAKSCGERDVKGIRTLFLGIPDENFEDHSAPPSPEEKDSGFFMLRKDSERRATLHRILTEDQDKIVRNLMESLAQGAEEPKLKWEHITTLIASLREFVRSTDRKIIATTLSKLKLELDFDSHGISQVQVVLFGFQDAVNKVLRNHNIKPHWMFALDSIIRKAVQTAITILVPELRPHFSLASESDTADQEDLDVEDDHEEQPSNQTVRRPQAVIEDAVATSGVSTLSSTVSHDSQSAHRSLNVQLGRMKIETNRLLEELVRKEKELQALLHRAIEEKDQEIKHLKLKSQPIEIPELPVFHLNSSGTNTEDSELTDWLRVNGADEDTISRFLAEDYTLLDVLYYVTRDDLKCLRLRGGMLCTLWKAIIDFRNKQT


What was measured:
[1] = biological target: T1, wild type CAD (CAD-WT) (1-345), …; assay: GST pull-down on glutathione-agarose beads, labelled CAD, SDS-PAGE
Procedure: In detail, wild type CIA (CIA-WT) and its deletion mutants, CIA-ΔN, CIA-ΔC and CIA-CEN, all of them prepared in Example 4, were immobilized onto glutathione-agarose beads and then applied to in vitro translated [^35S] methionine-labeled CAD. Meanwhile, wild type CAD (CAD-WT) (1–345) and its deletion mutants, CAD-ΔN deficient in a […] region (Δ1–83), CAD-NT containing N-terminal half only (Δ162–345), CAD-ΔC deficient in a C-terminal region (Δ290–345), were prepared by PCR and cloned to pLexA (Clonetech). After being isolated and purified from E. coli transformants harboring the expression vectors, the recombinant proteins CAD-WT, CAD-ΔN, CAD-NT and CAD-ΔC, were labeled with ^35S radioactive isotope, and then applied to the glutathione-agarose beads onto which GST-CIA was immobilized. The proteins bounded to the glutathione-agarose beads were eluted, and separated on a gel by SDS-PAGE.

[2] = biological target: T2, ASK1 wild-type, full length (apoptosis …); assay: GST pull-down on glutathione-agarose beads, 35S-labelled ASK1, SDS-PAGE
Procedure: After being immobilized onto glutathione-agarose beads, GST-CIA-WT and its deletion recombinant peptides were reacted with the […] [^35S] methionine-labeled ASK1 or its mutant peptides at 4° C. for 3 hours in a buffer (50 mM Tris, pH 7.5, 150 mM NaCl, 2 mM EDTA, 1 mM dithiothreitol, 0.1% NP-40 and 5 mg/ml BSA). After completion of the reaction, the glutathione-agarose beads were washed three times with a buffer (50 mM HEPES, pH 7.5, 150 mM NaCl, 1 mM EDTA, 1 mM dithiothreitol, 0.1% Tween 20). Next, ^35S-labeled peptides were eluted from the glutathione-agarose beads and analyzed by SDS-PAGE.

binding result [1]	binding result [2]	Binder
no binding		GST-CIA-ΔN (CIA deficient in N-terminal amino acids 1 to 78) (other, Range follows from 'deficient in N-terminal amino acids 1 to 78' of the 221-residue protein; also called CIA-AN; N-terminal region-deleted CIA peptide; not shown: N-terminal GST of pGEX-4T-1 and its linker) AAFRQVQGSEISSIDEFCRKFRLDCPLAMERIKEDRPITIKDDKGNLNRCIADVVSLFITVMDKLRLEIRAMDEIQPDLRELMETMHRMSHLPPDFEGRQTVSQWLQTLSGMSASDELDDSQVRQMLFDLESAYNAFNRFLHA
no binding	no binding	GST-CIA-CEN (CIA containing only amino acids 79 to 174) (other, also called CIA mutant peptide deficient in both terminal regions; not shown: N-terminal GST of pGEX-4T-1 and its linker) AAFRQVQGSEISSIDEFCRKFRLDCPLAMERIKEDRPITIKDDKGNLNRCIADVVSLFITVMDKLRLEIRAMDEIQPDLRELMETMHRMSHLPPDF
